Paper PMC9391306
Read-outs that look alike come from different tables or passages of the source.

Legend:
[1] = target: T1, PARP1 Zn1-Zn3 (linked);PARP1 WGR-HD (Homo sapiens?;Homo sapiens?, UniProt P09874;P09874 1-366;527-786, del97-206|del663-676); assay: X-ray crystallography
[2] = target: PARP1 Zn1-Zn3 (linked);PARP1 WGR-CAT ΔVE (Homo sapiens?;Homo sapiens?, UniProt P09874;P09874 1-366;518-1014, del97-206|del687-688); assay: X-ray crystallography
PARP1 M686G/V687P [3] = target: T2, PARP1 M686G/V687P (UniProt P09874 1-1014, M686G;V687P); assay: fluorescence polarization
PARP1 ΔV687-E688 (ΔVE) [4] = target: T3, PARP1 ΔV687-E688 (ΔVE) (UniProt P09874 1-1014, del687-688); assay: fluorescence polarization
PARP1 L698A/L701A [5] = target: T4, PARP1 L698A/L701A (UniProt P09874 1-1014, L698A;L701A); assay: fluorescence polarization
PARP1 ΔART [6] = target: T5, PARP1 ΔART (UniProt P09874 1-786); assay: fluorescence polarization
PARP1 V687A/E688A [7] = target: T6, PARP1 V687A/E688A (UniProt P09874 1-1014, V687A;E688A); assay: fluorescence polarization
PARP1 G558E = PARP1 G558E (UniProt P09874 1-1014, G558E); assay: fluorescence polarization
PARP1 L713F [8] = target: T7, PARP1 L713F (UniProt P09874 1-1014, L713F); assay: fluorescence polarization
PARP1 G558L [9] = target: T8, PARP1 G558L (UniProt P09874 1-1014, G558L); assay: fluorescence polarization
PARP1 G558V [10] = target: T9, PARP1 G558V (UniProt P09874 1-1014, G558V); assay: fluorescence polarization
PARP1 WT [11] = target: T10, PARP1 WT (UniProt P09874 1-1014); assay: fluorescence polarization
PARP1 M686G/V687P [12] = target: T2, PARP1 M686G/V687P; assay: fluorescence polarization; remark: listed apart in the source
PARP1 ΔV687-E688 (ΔVE) [13] = target: T3, PARP1 ΔV687-E688 (ΔVE); assay: fluorescence polarization; remark: listed apart in the source
PARP1 L698A/L701A [14] = target: T4, PARP1 L698A/L701A; assay: fluorescence polarization; remark: listed apart in the source
PARP1 ΔART [15] = target: T5, PARP1 ΔART; assay: fluorescence polarization; remark: listed apart in the source
PARP1 V687A/E688A [16] = target: T6, PARP1 V687A/E688A; assay: fluorescence polarization; remark: listed apart in the source
PARP1 Y569L = PARP1 Y569L (UniProt P09874 1-1014, Y569L); assay: fluorescence polarization
PARP1 L713F [17] = target: T7, PARP1 L713F; assay: fluorescence polarization; remark: listed apart in the source
PARP1 Y569A = PARP1 Y569A (UniProt P09874 1-1014, Y569A); assay: fluorescence polarization
PARP1 G558L [18] = target: T8, PARP1 G558L; assay: fluorescence polarization; remark: listed apart in the source
PARP1 G558V [19] = target: T9, PARP1 G558V; assay: fluorescence polarization; remark: listed apart in the source
PARP1 WT [20] = target: T10, PARP1 WT; assay: fluorescence polarization; remark: listed apart in the source
[21] = target: T1, PARP1 Zn1-Zn3 (linked);PARP1 WGR-HD; assay: fluorescence polarization
PARP1 WGR-HD = PARP1 WGR-HD (UniProt P09874 527-786, del663-676); assay: fluorescence polarization
PARP1 WGR-CAT = PARP1 WGR-CAT (UniProt P09874 518-1014); assay: fluorescence polarization
[22] = target: PARP1 Zn1;PARP1 Zn3;PARP1 WGR-HD (Homo sapiens?;Homo sapiens?;Homo …, UniProt P09874;P09874;P09874 1-96;216-366;527-786, ||del663-676); assay: X-ray crystallography

B1: 10-bp palindromic duplex (dsDNA)
DNA 1: GCCTGCAGGC
DNA 2: GCCTGCAGGC
B1: binds [1].

B2: 5-bp duplex (dsDNA)
DNA 1: CGACG
DNA 2: CGTCG
B2: binds [2].

B3: 18-bp DSB duplex (dsDNA)
DNA 1: GGGTTGCGGCCGCTTGGG
DNA 2: CCCAAGCGGCCGCAACCC
Binder B3 has a Kd (PARP1 M686G/V687P [3]) of 7.3 ± 2.3 nM, a Kd (PARP1 ΔV687-E688 (ΔVE) [4]) of 9.4 ± 1.3 nM and a Kd (PARP1 L698A/L701A [5]) of 64.4 ± 13.4 nM. For the same binder, the Kd (PARP1 ΔART [6]) was 12.1 ± 4.6 nM, the Kd (PARP1 V687A/E688A [7]) was 71.2 ± 10.7 nM and the Kd (PARP1 G558E) was 118 ± 23.2 nM. The Kd (PARP1 L713F [8]) was 21.3 ± 3.5 nM, the Kd (PARP1 G558L [9]) was 57.2 ± 5.8 nM and the Kd (PARP1 G558V [10]) was 66.7 ± 7.4 nM. It also gave a Kd (PARP1 WT [11]) of 59.7 ± 9.2 nM, a Kd (PARP1 M686G/V687P [12]) of 4.8 ± 1.4 nM and a Kd (PARP1 ΔV687-E688 (ΔVE) [13]) of 8 ± 1.9 nM. For the same binder, the Kd (PARP1 L698A/L701A [14]) was 15.3 ± 7.8 nM, the Kd (PARP1 ΔART [15]) was 15.4 ± 1.8 nM and the Kd (PARP1 V687A/E688A [16]) was 10.3 ± 3.6 nM. For the same binder, the Kd (PARP1 Y569L) was 40.8 ± 2.1 nM, the Kd (PARP1 L713F [17]) was 6.2 ± 3.1 nM and the Kd (PARP1 Y569A) was 20.6 ± 1.4 nM. The Kd (PARP1 G558L [18]) was 7.6 ± 1.2 nM, the Kd (PARP1 G558V [19]) was 10.2 ± 1.5 nM and the Kd (PARP1 WT [20]) was 8.4 ± 1 nM. The Kd [21] was 7 ± 2.4 nM, the binding result (PARP1 WGR-HD) was “no binding” and the binding result (PARP1 WGR-CAT) was “no binding”.

B4: 12-bp palindromic duplex (dsDNA)
DNA 1: ATGCGGCCGCAT
DNA 2: ATGCGGCCGCAT
B4: binds [22].
